Values quoted from earlier work, collected in PMC2669593.
pKd: −log10 of the molar value.

Molecular target: CaVβ1b (UniProt Q02641)
Sequence of UniProt Q02641 (Q02641 whole entry): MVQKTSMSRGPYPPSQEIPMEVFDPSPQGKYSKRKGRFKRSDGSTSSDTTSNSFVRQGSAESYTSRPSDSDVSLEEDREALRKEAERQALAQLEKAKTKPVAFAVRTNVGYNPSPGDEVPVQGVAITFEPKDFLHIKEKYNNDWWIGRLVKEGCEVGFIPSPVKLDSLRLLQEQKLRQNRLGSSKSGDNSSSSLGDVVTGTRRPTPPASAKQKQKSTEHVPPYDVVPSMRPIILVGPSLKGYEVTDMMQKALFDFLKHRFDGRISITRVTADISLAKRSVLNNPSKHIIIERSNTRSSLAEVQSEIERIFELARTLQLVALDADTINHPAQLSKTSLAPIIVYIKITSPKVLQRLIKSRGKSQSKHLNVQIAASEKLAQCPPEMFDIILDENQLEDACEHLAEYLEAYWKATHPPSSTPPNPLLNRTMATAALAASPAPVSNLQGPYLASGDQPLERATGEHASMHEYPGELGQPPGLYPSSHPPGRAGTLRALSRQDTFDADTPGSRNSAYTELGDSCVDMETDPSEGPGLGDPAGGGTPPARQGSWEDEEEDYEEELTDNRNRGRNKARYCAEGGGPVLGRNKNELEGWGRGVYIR

pKd: 8.00
Substance: CaV2.2 I-II linker (from UniProt Q00975)
